The text below walks through data of US20090028788A1 (WASHINGTON UNIVERSITY IN ST LOUIS, published 2009).

Bridges are numbered along the chain shown (N, C = ends). Primed or numbered codes have the meaning given here. Where no end group is shown, it is not given here. [ ]: non-standard residue; d: D form. The star is where a group is joined. Cypate = CC1(C)C(/C=C/C=C/C=C/C=C2/N(CCC(=O)*)c3ccc4ccccc4c3C2(C)C)=[N+](CCC(=O)O)c2ccc3ccccc3c21; DOTA = O=C(O)CN1CCN(CC(=O)O)CCN(CC(=O)*)CCN(CC(=O)O)CC1; Cypate′ = NIR carbocyanine dye; βAla = NCCC(=O)O Bounds are passed on as bounds.

In experiment [1] the target is T1, purified human αvβ3 integrin protein (human, UniProt P06756 31-1048; P05106 27-788).
T1 construct: Bought heterodimer; also called ABI; purified αvβ3 integrin
T1 sequence (P06756 31-1048, form in doubt, chain 1 of 2): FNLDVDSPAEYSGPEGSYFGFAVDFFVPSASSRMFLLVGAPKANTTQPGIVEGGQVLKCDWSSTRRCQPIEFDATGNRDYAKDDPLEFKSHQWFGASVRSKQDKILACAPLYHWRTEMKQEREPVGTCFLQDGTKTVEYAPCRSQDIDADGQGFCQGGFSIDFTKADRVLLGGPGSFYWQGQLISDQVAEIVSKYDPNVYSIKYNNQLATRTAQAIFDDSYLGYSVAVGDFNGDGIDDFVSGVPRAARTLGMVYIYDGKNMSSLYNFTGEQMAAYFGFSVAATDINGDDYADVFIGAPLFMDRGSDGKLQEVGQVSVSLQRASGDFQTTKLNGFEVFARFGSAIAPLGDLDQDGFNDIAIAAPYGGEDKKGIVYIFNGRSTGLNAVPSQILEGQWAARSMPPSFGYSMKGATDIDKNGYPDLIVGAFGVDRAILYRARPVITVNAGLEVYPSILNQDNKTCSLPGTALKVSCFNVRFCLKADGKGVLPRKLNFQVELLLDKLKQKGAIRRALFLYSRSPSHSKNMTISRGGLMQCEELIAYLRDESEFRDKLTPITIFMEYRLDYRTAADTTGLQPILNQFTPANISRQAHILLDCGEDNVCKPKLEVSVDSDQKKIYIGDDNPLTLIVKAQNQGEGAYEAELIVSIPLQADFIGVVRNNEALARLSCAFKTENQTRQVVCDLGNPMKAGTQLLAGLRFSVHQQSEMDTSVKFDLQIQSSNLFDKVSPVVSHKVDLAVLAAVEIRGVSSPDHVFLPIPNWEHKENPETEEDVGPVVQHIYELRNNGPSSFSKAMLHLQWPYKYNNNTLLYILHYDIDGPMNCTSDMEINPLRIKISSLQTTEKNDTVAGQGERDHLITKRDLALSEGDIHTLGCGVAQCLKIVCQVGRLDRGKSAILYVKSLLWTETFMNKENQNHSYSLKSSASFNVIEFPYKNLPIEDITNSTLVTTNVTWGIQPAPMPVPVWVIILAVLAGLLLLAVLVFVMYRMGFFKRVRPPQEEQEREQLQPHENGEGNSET
T1 sequence (P05106 27-788, form in doubt, chain 2 of 2): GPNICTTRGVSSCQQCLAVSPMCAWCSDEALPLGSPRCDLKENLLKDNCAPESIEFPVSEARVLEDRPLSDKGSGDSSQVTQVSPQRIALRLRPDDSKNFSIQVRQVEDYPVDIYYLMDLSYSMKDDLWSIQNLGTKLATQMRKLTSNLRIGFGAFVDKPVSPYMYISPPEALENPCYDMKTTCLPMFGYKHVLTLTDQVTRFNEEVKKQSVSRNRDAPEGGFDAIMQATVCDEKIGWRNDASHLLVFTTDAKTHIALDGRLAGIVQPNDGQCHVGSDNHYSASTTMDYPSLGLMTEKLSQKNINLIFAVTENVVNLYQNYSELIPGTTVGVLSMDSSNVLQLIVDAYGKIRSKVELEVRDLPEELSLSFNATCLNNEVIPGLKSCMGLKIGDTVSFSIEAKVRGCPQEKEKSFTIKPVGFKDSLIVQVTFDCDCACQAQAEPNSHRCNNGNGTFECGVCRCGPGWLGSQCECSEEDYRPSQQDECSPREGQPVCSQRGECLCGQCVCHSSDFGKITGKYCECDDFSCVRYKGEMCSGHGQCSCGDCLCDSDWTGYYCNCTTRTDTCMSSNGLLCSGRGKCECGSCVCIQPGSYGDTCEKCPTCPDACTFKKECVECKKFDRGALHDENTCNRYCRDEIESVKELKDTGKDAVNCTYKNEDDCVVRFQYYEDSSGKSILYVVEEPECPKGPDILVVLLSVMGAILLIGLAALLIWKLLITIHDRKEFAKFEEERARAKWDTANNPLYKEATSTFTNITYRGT
Kind of experiment: competition with 125I-echistatin on purified human αvβ3 integrin, filter plate.
Description: (§1) The binding affinities were measured based on the competitive binding between purified αᵥβ₃ integrin (ABI) and peptide ligands.
(§2) Receptor binding assays were performed by using purified human αᵥβ₃ integrin protein from Chemicon International, Inc. (Temecula, Calif.). Assays were carried out using the Millipore Duropore membrane 96-well plates and the Millipore MultiScreen system (Bedford, Mass.). […] The concentration range of ligand was between 0.01 μM and 100 μM. The mixtures were incubated for 2 h at room temperature, the ABI was then filtered by centrifugation at 1500 g and washed three times with 0.20 mL of ice-cold binding buffer. The filters containing radioactivity bound ABI were removed using a punch apparatus and counted using a Packard Cobra II Auto-gamma counter (Meriden, Conn.). […] The 50% inhibitory concentrations (IC₅₀) were calculated by nonlinear regression analysis by use of the GraphPad Prism 4 computer fitting program (GraphPad Software, Inc., San Diego, Calif.).

Experiment [2] concerns the target T1, purified human αvβ3 integrin protein. Described as above. The source holds these as a separate data set.
Description: as §1, §2
For experiment [3] the target is unchanged. Kind of experiment: competition with 125I-echistatin on purified αvβ3 integrin, filtration plate (Example 3).
Description: The concentration range of ligand was between 0.01 and 100 μM. The mixture was incubated for 2 h by shaking at room temperature. Each well was washed three times with 0.25 mL of ice-cold binding buffer and dried. The filters were removed using a punch apparatus and counted in a gamma counter.

B1: Cypate-cyclo(CRGDSC)-NH2 (peptide)
peptide: CRGDSC
HELM: PEPTIDE1{[CC1(C)C(/C=C/C=C/C=C/C=C2/N(CCC(=O)[*:2])c3ccc4ccccc4c3C2(C)C)=[N+](CCC(=O)O)c2ccc3ccccc3c21].C.R.G.D.S.C.[am]}$PEPTIDE1,PEPTIDE1,2:R3-7:R3$$$V2.0
SMILES: CC1(C)C(/C=C/C=C/C=C/C=C2/N(CCC(=O)N[C@H]3CSSC[C@@H](C(N)=O)NC(=O)[C@H](CO)NC(=O)[C@H](CC(=O)O)NC(=O)CNC(=O)[C@H](CCCNC(=N)N)NC3=O)c3ccc4ccccc4c3C2(C)C)=[N+](CCC(=O)O)c2ccc3ccccc3c21
notes: also called Cypate-[Cyclo-(Cys-Arg-Gly-Asp-Ser-Cys)]1
By IC50 is commonly meant the point on the concentration scale where inhibition reaches its midpoint. In experiment [1], B1 gave an IC50 of 1.14 µM.

B2: Cypate-cyclo(CRGDLC)-NH2 (peptide)
peptide: CRGDLC
HELM: PEPTIDE1{[CC1(C)C(/C=C/C=C/C=C/C=C2/N(CCC(=O)[*:2])c3ccc4ccccc4c3C2(C)C)=[N+](CCC(=O)O)c2ccc3ccccc3c21].C.R.G.D.L.C.[am]}$PEPTIDE1,PEPTIDE1,2:R3-7:R3$$$V2.0
SMILES: CC(C)C[C@@H]1NC(=O)[C@H](CC(=O)O)NC(=O)CNC(=O)[C@H](CCCNC(=N)N)NC(=O)[C@@H](NC(=O)CCN2/C(=C/C=C/C=C/C=C/C3=[N+](CCC(=O)O)c4ccc5ccccc5c4C3(C)C)C(C)(C)c3c2ccc2ccccc32)CSSC[C@@H](C(N)=O)NC1=O
B2: the half-maximal inhibitory concentration (IC50) in experiment [1] stood at 9.64 µM.

B3: Cypate-cyclo(CRGDDC)-NH2 (peptide)
peptide: CRGDDC
HELM: PEPTIDE1{[CC1(C)C(/C=C/C=C/C=C/C=C2/N(CCC(=O)[*:2])c3ccc4ccccc4c3C2(C)C)=[N+](CCC(=O)O)c2ccc3ccccc3c21].C.R.G.D.D.C.[am]}$PEPTIDE1,PEPTIDE1,2:R3-7:R3$$$V2.0
SMILES: CC1(C)C(/C=C/C=C/C=C/C=C2/N(CCC(=O)N[C@H]3CSSC[C@@H](C(N)=O)NC(=O)[C@H](CC(=O)O)NC(=O)[C@H](CC(=O)O)NC(=O)CNC(=O)[C@H](CCCNC(=N)N)NC3=O)c3ccc4ccccc4c3C2(C)C)=[N+](CCC(=O)O)c2ccc3ccccc3c21
In the case of B3, the IC50 in experiment [1] was 1.89 µM.

B4: Cypate-cyclo(CRGDGRC)-NH2 (peptide)
peptide: CRGDGRC
HELM: PEPTIDE1{[CC1(C)C(/C=C/C=C/C=C/C=C2/N(CCC(=O)[*:2])c3ccc4ccccc4c3C2(C)C)=[N+](CCC(=O)O)c2ccc3ccccc3c21].C.R.G.D.G.R.C.[am]}$PEPTIDE1,PEPTIDE1,2:R3-8:R3$$$V2.0
SMILES: CC1(C)C(/C=C/C=C/C=C/C=C2/N(CCC(=O)N[C@H]3CSSC[C@@H](C(N)=O)NC(=O)[C@H](CCCNC(=N)N)NC(=O)CNC(=O)[C@H](CC(=O)O)NC(=O)CNC(=O)[C@H](CCCNC(=N)N)NC3=O)c3ccc4ccccc4c3C2(C)C)=[N+](CCC(=O)O)c2ccc3ccccc3c21
For B4, the IC50 in experiment [1] came out at 1.09 µM.

B5: Cypate-Gly-Arg-Gly-Asp-Ser-Pro-Lys-OH (peptide)
peptide: GRGDSPK
HELM: PEPTIDE1{[CC1(C)C(/C=C/C=C/C=C/C=C2/N(CCC(=O)[*:2])c3ccc4ccccc4c3C2(C)C)=[N+](CCC(=O)O)c2ccc3ccccc3c21].G.R.G.D.S.P.K}$$$$V2.0
SMILES: CC1(C)C(/C=C/C=C/C=C/C=C2/N(CCC(=O)NCC(=O)N[C@@H](CCCNC(=N)N)C(=O)NCC(=O)N[C@@H](CC(=O)O)C(=O)N[C@@H](CO)C(=O)N3CCC[C@H]3C(=O)N[C@@H](CCCCN)C(=O)O)c3ccc4ccccc4c3C2(C)C)=[N+](CCC(=O)O)c2ccc3ccccc3c21
notes: also called Cypate-GRGDSPK; Cypate-GRGDSPK-OH
Turning to B5, the half-maximal inhibitory concentration (IC50) in experiment [2] amounted to 0.328 µM; in experiment [3], 10.7 µM.

B6: Cypate-[Cyclo(Cys-Arg-Gly-Asp-Ser-Cys)-NH2]1-(D-Glucosamine) (peptide)
peptide: CRGDSC-NH2
modifications: disulfide 1-6; not fully specified (N-terminus); printed as Cypate-[Cyclo(Cys-Arg-Gly-Asp-Ser-Cys)-NH2]1-(D-Glucosamine); also: D-glucosamine attached to cypate
For the molecule B6, the IC50 in experiment [2] is 0.275 µM.
Still for that read-out and setting: with H-RGDSPK(Cypate)-NH2 [H-Arg-Gly-Asp-Ser-Pro-Lys(Cypate)-NH2] the figure was 1 µM.

B7: Cypate-Cyclo(Cys-Arg-Gly-Asp-Cys)-NH2 (peptide)
peptide: CRGDC
HELM: PEPTIDE1{[CC1(C)C(/C=C/C=C/C=C/C=C2/N(CCC(=O)[*:2])c3ccc4ccccc4c3C2(C)C)=[N+](CCC(=O)O)c2ccc3ccccc3c21].C.R.G.D.C.[am]}$PEPTIDE1,PEPTIDE1,2:R3-6:R3$$$V2.0
SMILES: CC1(C)C(/C=C/C=C/C=C/C=C2/N(CCC(=O)N[C@H]3CSSC[C@@H](C(N)=O)NC(=O)[C@H](CC(=O)O)NC(=O)CNC(=O)[C@H](CCCNC(=N)N)NC3=O)c3ccc4ccccc4c3C2(C)C)=[N+](CCC(=O)O)c2ccc3ccccc3c21
notes: also called Cypate-cyclo(CRGDC)-NH2
Take B7: in experiment [1], the IC50 stood at 4.6 µM.
As to {Cypate(3)}-GRDSPK-OH [Cypate(3)-Gly-Arg-Asp-Ser-Pro-Lys-OH], the IC50 in experiment [2] came out at 2670 µM.

B8: cyclo[RGDfVK] (peptide)
peptide: RGDXVK
HELM: PEPTIDE1{R.G.D.[dF].V.K}$PEPTIDE1,PEPTIDE1,1:R1-6:R2$$$V2.0
SMILES: CC(C)[C@@H]1NC(=O)[C@@H](Cc2ccccc2)NC(=O)[C@H](CC(=O)O)NC(=O)CNC(=O)[C@H](CCCNC(=N)N)NC(=O)[C@H](CCCCN)NC1=O
B8 showed an IC50 in experiment [3] of 1.93 µM.
{Cypate(2)}-GRDSPK-OH [Cypate(2)-Gly-Arg-Asp-Ser-Pro-Lys-OH] gave an IC50 in experiment [2] of 266 µM.
On the same count and under the same terms, with {Cypate′}-VRGD[dF]CY[dW]KTCT-OH (disulfide 6-11) [Cypate-Val-Arg-Gly-Asp-DPhe-Cyclo(Cys-Tyr-DTrp-Lys-Thr-Cys)-Thr-OH] the figure was 325 µM; with {DOTA}-GRDSPK-OH (also called DOTA-GRD) [DOTA-Gly-Arg-Asp-Ser-Pro-Lys-OH], 350 µM; with Cypate-RGDS-NH2 (also: cypate also carries one D-glucosamine) [Cypate(Arg-Gly-Asp-Ser-NH2)1-(D-Glucosamine)], 1.94 µM.

B9: Cypate-Gly-Arg-Asp-Ser-Pro-Lys-OH (peptide)
peptide: GRDSPK
HELM: PEPTIDE1{[CC1(C)C(/C=C/C=C/C=C/C=C2/N(CCC(=O)[*:2])c3ccc4ccccc4c3C2(C)C)=[N+](CCC(=O)O)c2ccc3ccccc3c21].G.R.D.S.P.K}$$$$V2.0
SMILES: CC1(C)C(/C=C/C=C/C=C/C=C2/N(CCC(=O)NCC(=O)N[C@@H](CCCNC(=N)N)C(=O)N[C@@H](CC(=O)O)C(=O)N[C@@H](CO)C(=O)N3CCC[C@H]3C(=O)N[C@@H](CCCCN)C(=O)O)c3ccc4ccccc4c3C2(C)C)=[N+](CCC(=O)O)c2ccc3ccccc3c21
notes: also called Cypate-GRDSPK; Cypate-GRDSPK-OH
Turning to B9, the half-maximal inhibitory concentration (IC50) is 7.02 µM in experiment [2] and greater than 100 µM in experiment [3].

B10: DOTA-Arg-Gly-Asp-Ser-Pro-Lys(Cypate)-NH2 (peptide)
peptide: {DOTA}-RGDSPK(Cypate)-NH2
SMILES: CC1(C)C(/C=C/C=C/C=C/C=C2/N(CCC(=O)NCCCC[C@H](NC(=O)[C@@H]3CCCN3C(=O)[C@H](CO)NC(=O)[C@H](CC(=O)O)NC(=O)CNC(=O)[C@H](CCCNC(=N)N)NC(=O)CN3CCN(CC(=O)O)CCN(CC(=O)O)CCN(CC(=O)O)CC3)C(N)=O)c3ccc4ccccc4c3C2(C)C)=[N+](CCC(=O)O)c2ccc3ccccc3c21
B10 came in with an IC50 in experiment [2] of 0.722 µM.
Same read-out and setting: with {Cypate′}-[βAla]CRGDC[dF]V-NH2 (disulfide 2-6) [Cypate-BAla-Cyclo(Cys-Arg-Gly-Asp-Cys)-DPhe-Val-NH2] the figure was 0.000977 µM.
